# Measured values published in PMC9065009, “Mechanistic insights of ABC importer HutCD involved in heme internalization by Vibrio cholerae” (Scientific Reports, 2022).
# What was measured:
# HutD [1] = target: T1, HutD (Vibrio cholerae, UniProt Q9KL34); experiment: biochemical
# T1 construct: gene hmuV
# HutD [2] = experiment: cross-linking
# HutD [3] = experiment: SEC; Superdex 200 Increase 10/300 GL; 250 uM HutD preincubated 1.5 h at 4 °C with 500 uM AMP.PNP; 500 ul injected; 50 mM Tris-HCl pH 8.0, 300 mM NaCl, 5 mM MgCl2; 0.5 ml/min; calibrated with molecular weight standards
# Chain of HutD (enzyme) (O52047 whole entry): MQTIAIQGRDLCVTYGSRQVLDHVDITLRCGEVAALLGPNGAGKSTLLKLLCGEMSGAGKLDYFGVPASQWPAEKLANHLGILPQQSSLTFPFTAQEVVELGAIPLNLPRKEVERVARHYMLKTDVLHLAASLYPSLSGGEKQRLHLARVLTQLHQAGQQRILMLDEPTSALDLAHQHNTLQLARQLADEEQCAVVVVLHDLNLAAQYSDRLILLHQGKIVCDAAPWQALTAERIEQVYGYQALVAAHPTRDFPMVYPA
# T1 sequence (Q9KL34 whole entry, looked up): as the sequence (O52047 whole entry) above
Compound,Kd (HutD [1]) [µM],stoichiometry N (HutD [2]),stoichiometry N (HutD [3])
Nc1ncnc2c1ncn2[C@@H]1O[C@H](COP(=O)(O)OP(=O)(O)NP(=O)(O)O)[C@@H](O)[C@H]1O [AMP.PNP],94 ± 0.024,–,–
HutD (enzyme),–,2,2
